Source: article PMC7809202, “Identification of fidelity-governing factors in human recombinases DMC1 and RAD51 from cryo-EM structures” (Nature Communications, 2021)
Substitutions are numbered along the chain they refer to. Names may count otherwise.

What was measured:
[1] = target: T1, human RAD51 (Homo sapiens, UniProt Q06609, V273P/D274G); assay: cryo-EM structure of filament; conditions: 2 mM AMP-PNP, 5 mM CaCl2, pH 7.5, 37 °C; homologous dsDNA filament; ATP-binding site
T1 construct: untagged as described, human cDNA in pET11, E. coli BLR pRARE host; helical filament on dsDNA
T1 sequence (Q06609 2-339 V273P/D274G): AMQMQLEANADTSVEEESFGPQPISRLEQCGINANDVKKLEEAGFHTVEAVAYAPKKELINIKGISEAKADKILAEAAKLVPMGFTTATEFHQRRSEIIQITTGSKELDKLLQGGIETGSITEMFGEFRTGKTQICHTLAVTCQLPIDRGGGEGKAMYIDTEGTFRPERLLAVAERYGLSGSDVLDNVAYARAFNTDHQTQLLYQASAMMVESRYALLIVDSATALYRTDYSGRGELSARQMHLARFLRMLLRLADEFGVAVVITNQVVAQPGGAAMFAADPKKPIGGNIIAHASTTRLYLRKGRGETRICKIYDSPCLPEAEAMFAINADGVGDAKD

[2] = target: T2, DMC1-PvGd (Homo sapiens, UniProt Q14565 1-340, P274V;G275D); assay: EMSA; 2 mM ATP, 10 mM Mg2+; EMSA: 35 mM Tris-HCl pH 7.5, 1 mM DTT, 10 mM MgCl2, 100 ng/ul BSA, 50 mM KCl, 2 mM ATP, 37 °C 10 min; DNA 3 uM nucleotides or base pairs; conditions: protein: recombinant, tags: His6
T2 sequence: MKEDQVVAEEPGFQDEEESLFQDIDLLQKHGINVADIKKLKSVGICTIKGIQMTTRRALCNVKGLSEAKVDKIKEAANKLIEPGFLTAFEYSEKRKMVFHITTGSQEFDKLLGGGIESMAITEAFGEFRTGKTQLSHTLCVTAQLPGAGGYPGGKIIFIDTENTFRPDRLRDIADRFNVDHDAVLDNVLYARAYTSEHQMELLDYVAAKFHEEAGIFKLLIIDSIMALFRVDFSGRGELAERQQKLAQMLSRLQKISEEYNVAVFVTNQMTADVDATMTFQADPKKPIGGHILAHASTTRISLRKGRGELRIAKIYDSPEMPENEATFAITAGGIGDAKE

[3] = target: T3, DMC1-QmPvGd (Homo sapiens, UniProt Q14565 1-340, Q244M;P274V;G275D); assay: as above; conditions: protein: recombinant, tags: His6
T3 sequence: T2 sequence with Q244M

[4] = target: T4, DMC1 WT (Homo sapiens, UniProt Q14565 1-340); assay: cryo-EM structure; AMP-PNP; EMSA: 35 mM Tris-HCl pH 7.5, 1 mM DTT, 10 mM MgCl2, 100 ng/ul BSA, 50 mM KCl, 2 mM ATP, 37 °C 10 min; DNA 3 uM nucleotides or base pairs; conditions: protein: recombinant; tags: His6; single strand
T4 sequence: T2 sequence with V274P, D275G

[5] = target: T4, DMC1 WT; assay: cryo-EM structure; EMSA: 35 mM Tris-HCl pH 7.5, 1 mM DTT, 10 mM MgCl2, 100 ng/ul BSA, 50 mM KCl, 2 mM ATP, 37 °C 10 min; DNA 3 uM nucleotides or base pairs; conditions: protein: recombinant, tags: His6, blunt
[6] = target: T5, DMC1-Q244M (Qm) (Homo sapiens, UniProt Q14565 1-340, Q244M); assay: cryo-EM structure; DNA too flexible to be observed; EMSA: 35 mM Tris-HCl pH 7.5, 1 mM DTT, 10 mM MgCl2, 100 ng/ul BSA, 50 mM KCl, 2 mM ATP, 37 °C 10 min; DNA 3 uM nucleotides or base pairs; conditions: protein: recombinant; tags: His6; blunt
T5 sequence: T2 sequence with Q244M, V274P, D275G

[7] = target: the molecule itself; assay: cryo-EM structure; helical filaments: 4 uM DMC1 (or RAD51) protein with 24 uM nucleotides of ssDNA (presynaptic) or dsDNA (postsynaptic) in 35 mM Tris-HCl pH 7.5, 108 mM KCl, 1 mM DTT, 2 mM AMP-PNP, 5 mM CaCl2, 37 °C, 30 min; helical reconstruction; protomer to protomer within a nucleoprotein filament
[8] = label: 5'-32P (EMSA), single strand
[9] = label: 5'-32P on Oligo 1, blunt

Nc1ncnc2c1ncn2[C@@H]1O[C@H](COP(=O)(O)OP(=O)(O)NP(=O)(O)O)[C@@H](O)[C@H]1O [AMP-PNP]
cryo-EM structure of filament [1]: solved the structure of the dsDNA filaments of the double mutant RAD51-VpDg

B1: Oligo 1 80-mer ssDNA (ssDNA)
DNA: TTATGTTCATTTTTTATATCCTTTACTTTATTTTCTCTGTTTATTCATTTACTTATTTTGTATTATCCTTATCTTATTTA
binding signal [2, 8]: ~60 % of WT binding (approx. 40% lost) | binding signal [3, 8]: ~40 % of WT binding (approx. 60% lost)

B2: Oligo 1 80-mer ssDNA, unlabeled (ssDNA)
DNA: B1 DNA
binding result [4]: binds

B3: Oligo 1/Oligo 2 80 bp dsDNA (dsDNA)
DNA 1: B1 DNA
DNA 2: TAAATAAGATAAGGATAATACAAAATAAGTAAATGAATAAACAGAGAAAATAAAGTAAAGGATATAAAAAATGAACATAA
binding signal [2, 9]: ~60 % of WT binding (approx. 40% lost) | binding signal [3, 9]: ~40 % of WT binding (approx. 60% lost)

B4: Oligo 3/Oligo 4 15 bp homologous dsDNA (dsDNA)
DNA 1: ACGGGCAACAGCTGA
DNA 2: TCAGCTGTTGCCCGT
binding result [5]: binds | binding result [6]: binds

B5: Oligo 3/Oligo 5 15 bp mismatched dsDNA (dsDNA)
DNA 1: ACGGGCAACAGCTGA
DNA 2: TCAGCTGTCGCCCGT
binding result ([5]; one A-C mismatch): binds

B6: human DMC1 (wild type) (natural protein)
chain: T2 sequence with V274P, D275G
notes: DMC1, human; cDNA in vector pRSFDuet; Protomer of a helical filament assembled on ssDNA or dsDNA with AMP-PNP and Ca2+; also called DMC1-WT; WT DMC1; source: E. coli RecA-deficient BLR strain with pRARE, purified (TALON, Source Q, macrohydroxyapatite, Mono Q)
binding result [7]: binds

B7: human DMC1-Q244M (natural protein)
chain: T2 sequence with Q244M, V274P, D275G
notes: DMC1, human; site-directed mutant of the DMC1 cDNA in pRSFDuet; Protomer of a helical filament assembled with homologous dsDNA, AMP-PNP and Ca2+; the DNA density was not observable in the map; also called DMC1-Qm; source: E. coli BLR pRARE, purified as described for the WT protein
binding result [7]: binds

B8: human RAD51-V273P/D274G (natural protein)
chain: MAMQMQLEANADTSVEEESFGPQPISRLEQCGINANDVKKLEEAGFHTVEAVAYAPKKELINIKGISEAKADKILAEAAKLVPMGFTTATEFHQRRSEIIQITTGSKELDKLLQGGIETGSITEMFGEFRTGKTQICHTLAVTCQLPIDRGGGEGKAMYIDTEGTFRPERLLAVAERYGLSGSDVLDNVAYARAFNTDHQTQLLYQASAMMVESRYALLIVDSATALYRTDYSGRGELSARQMHLARFLRMLLRLADEFGVAVVITNQVVAQPGGAAMFAADPKKPIGGNIIAHASTTRLYLRKGRGETRICKIYDSPCLPEAEAMFAINADGVGDAKD
notes: RAD51, human; site-directed mutant of the RAD51 cDNA in vector pET11; Protomer of a helical filament assembled on dsDNA with AMP-PNP and Ca2+; also called RAD51-VpDg; RAD51-V273P, D274G mutant
binding result [7]: binds
